Test [1] has as its system TCR(SU3–3)-TG40 and TCR(NM-4)-TG40 cells. Nature of the test: IL-2 production assay with HLA-DP5-expressing mDC1 cells. As to conditions: vs WT NF-pCj1; HLA-DP5-mDC1s, 18 h, ELISA. (In general: An ELISA detects its analyte on a solid surface through an enzyme-linked reagent.)
Description: The DPA1-stable cells were established by the transduction of mouse antigen-presenting dendritic cell line 1 (mDC1) cells with a retrovirus containing pMXs-Puro/DPA1 and selection with puromycin (5 μg ml^−1). The DPA1-stable cells were subsequently transduced with pMXs-IB/DPB1 and selected with blasticidin (5 μg ml^−1), to obtain DPA1- and DPB1-stable cells. […] The cell-surface expression levels of HLA-DP were analyzed with an EPICS-XL (Beckman Coulter) or BD FACSCalibur (BD Biosciences) flow cytometer. HLA-DP was stained with anti-HLA-DP (B7/21) (Leinco Technologies), and mouse IgG3 (6A3) (MBL), as the isotype control, was stained with phycoerythrin-conjugated anti-mouse IgG3 (Santa Cruz Biotechnology). mDC1 cells with certain uniform levels of HLA-DP5 expression were collected and used for the quantitative assays of cell-surface peptide-display and IL-2 production.
Human CD4^+ TG40 cells were infected with the recombinant retroviruses by using retronectin (Takara Bio), according to the manufacturer’s instructions.
HLA-DP5-expressing mDC1 cells (5.0 × 10^3 cells per well) were cultured with NF-pCj1 for 3 h in 96-well flat-bottom plates.
T-cell response to NF-pCj1 presented by mDC1s.
Test [2] has as its system HLA-DP5 expressed on mDC1 cells. Nature of the test: Cell-surface peptide-display assay on HLA-DP5-expressing mDC1 cells. Conditions: 3.5 h at 37°C.
Description: (§1) The DPA1-stable cells were established by the transduction of mouse antigen-presenting dendritic cell line 1 (mDC1) cells with a retrovirus containing pMXs-Puro/DPA1 and selection with puromycin (5 μg ml^−1). The DPA1-stable cells were subsequently transduced with pMXs-IB/DPB1 and selected with blasticidin (5 μg ml^−1), to obtain DPA1- and DPB1-stable cells. […] The cell-surface expression levels of HLA-DP were analyzed with an EPICS-XL (Beckman Coulter) or BD FACSCalibur (BD Biosciences) flow cytometer. HLA-DP was stained with anti-HLA-DP (B7/21) (Leinco Technologies), and mouse IgG3 (6A3) (MBL), as the isotype control, was stained with phycoerythrin-conjugated anti-mouse IgG3 (Santa Cruz Biotechnology). mDC1 cells with certain uniform levels of HLA-DP5 expression were collected and used for the quantitative assays of cell-surface peptide-display and IL-2 production. […]
(§2) The parent mDC1 cells without HLA-DP5 expression (HLA-DP5[−]), and the HLA-DP5-expressing mDC1 cells, HLA-DP5[WT], were diluted with DMEM to 1.0 × 10^6 cells ml^−1. […] Thereafter, the cells were stained with Hoechst 33342 (diluted 1: 1000, at 4°C) (Thermo Fisher Scientific), and analyzed by a flow cytometer (BD LSRFortessa X-20, BD Biosciences) for the fluorescent intensity in the whole cell (TAMRA, excited at 561 nm) and that on the cell surface (Alexa647, excited at 640 nm). […]
The test system of test [3] is mDC1 cells (mouse antigen-presenting dendritic cell line 1). The test is described as follows: Uptake of TAMRA-labeled NF-pCj1 into mDC1 cells. As to conditions: TAMRA MFI, 0.25–4 μM, 3.5 h at 37°C, flow cytometry.
Description: as §1, §2
In test [4] the target is pCj1–HLA-DP5^ec (extracellular regions of HLA-DP5 with the nine-residue core peptide pCj1 fused to the β chain) (human | Cryptomeria japonica) (UniProt P18632). Nature of the test: SPR. A general note: In SPR one partner is held on a chip, and binding of the other changes the refractive index at the surface.
In test [5] the target is NF-pCj1–HLA-DP5^ec (HLA-DP5α protein and NF-pCj1–HLA-DP5β fusion protein, extracellular regions) (human | Cryptomeria japonica) (UniProt P18632). The test is described as follows: SPR.
The subject of a further test is CD4^+ T cells. Nature of the test: CFSE assay of CD4^+ T-cell proliferation in PBMCs of HLA-DP5^+ CP patients. Conditions: PBMCs from HLA-DP5^+ CP patients. It is filed as cell-based, human. As for the experimental part: Peripheral blood was obtained from HLA-DP5^+ CP patients. Peripheral blood mononuclear cells (PBMCs) were isolated by a density gradient technique, using Ficoll-Paque PLUS. The research protocol for collecting and using PBMCs from allergic patients was approved by the Institutional Review Board of Kyushu University.
The CFSE assay was performed as described previously ([24]). Briefly, PBMCs (1.0 × 10^7 cells ml^−1 in PBS) were incubated for 10 min with 5 μM CFSE (Molecular Probes). Staining was terminated by adding PBS containing 5% pooled human serum, and after the cells were washed three times in PBS containing 1% pooled human serum, they were resuspended in culture medium (RPMI-1640 containing 5% pooled human serum) at 2.0 × 10^6 cells ml^−1. Stained cells (2.0 × 10^6 cells well^−1, 1 ml) were cultured in 24-well plates with medium alone, pCj1 (final concentration, 10 μg ml^−1), or NF-pCj1 (10 μg ml^−1). After 7 days, the cells treated with each antigen were pooled, washed in PBS, and stained with anti-human CD4-allophycocyanin (IgG1, clone RPA-T4, BioLegend) and 7-amino-actinomycin D (7-AAD) (BD Pharmingen). Antigen-specific, viable CD4^+ T cells were identified as 7AAD^−, CD4^+, CFSE^dim cells, and the proliferation levels of these antigen-specific CD4^+ T cells were examined in each experiment.

Test [6] deals with T1, Cry j 1 (NF-pCj1, NF[WT]-pCj1) peptide on HLA-DPA1*02:02 / HLA-DPB1*05:01 (human).
T1 peptide: DKSMKVTVAFNQF
The test is described as follows: Kd or kinetics.

For test [7], the target named is T1, Cry j 1 (NF-pCj1, NF[WT]-pCj1) peptide …. Nature of the test: cytokine release.
Test [8] addresses T2, Cry j 1 (pCj1) peptide on HLA-DPA1*02:02 / HLA-DPB1*05:01 (human).
T2 peptide: KVTVAFNQF
Nature of the test: activation reporter or marker.

In test [9] the target is T2, Cry j 1 (pCj1) peptide on …. The test is described as follows: cytokine release.

Entries after “also recorded” stand apart in the source; their conditions may differ.

Turning to “NF[S(P–2)E/K(P–3)E]-pCj1: double mutation of Ser(–2) and Lys(–3) to Glu in a 13-residue Cry j 1 peptide (NF-pCj1) (DEEMKVTVAFNQF)”, in test [1], the “effect of NF mutation on T-cell activation / IL-2 production (in words)” value is “dramatically reduced”.

As for “DKSMKVTVAFNQF-GPN-EG2-TAMRA [NF-pCj1–TAMRA]”, the “amount of surface-displayed peptide per cell versus concentration (in words)” value in [2] (Alexa 647-labeled anti-TAMRA antibody MFI, 0.25–4 μM) is recorded as “nearly proportional to the peptide concentration in the range of 0.25–4 μM”. In addition, the “uptake versus concentration in the medium (in words)” value in test [3] is “proportional to its concentration in the medium”.

For the molecule “TCR(SU3–3)^ec αβ molecule (extracellular regions of the TCR(SU3–3) α chain, residues 1–209, and β chain, residues 1–245, with an artificial interchain disulfide bond) (from UniProt A0A0A6YYJ7)”, the Kd was determined as 90.1 µM in [4] and 92.5 µM in test [5].

Consider KVTVAFNQF [pCj1], for which the “CD4^+ T-cell proliferation and clone establishment (in words)” value in the test on CD4^+ T cells is “some proliferation; also recorded: it was impossible to maintain the cell growth required to establish HLA-DP5-restricted CD4^+ T-cell clones”.

In the case of DEEMKVTVAFNQF-GPN-EG2-TAMRA, in [2] (1 μM, same peptide dose and HLA-DP5 surface expression, Alexa647 MFI), the “effect of NF mutations on amount of cell-surface displayed peptide (in words)” value is “halved the amounts of the cell-surface displayed peptide”.

B1: TCR(SU3–3) (TCR)
alpha TRAV8-3*01 TRAJ34*01 CDR3: CAVAPTYNTDKLIF
beta TRBV7-9*03 TRBJ2-2*01 CDR3: CASSSKGGAGELFF
Regarding B1, the binding result in test [6] is on record as “recognises”.

B2: TCR(NM-7) (TCR)
alpha TRAV12-3*01 TRAJ27*01 CDR3: CGANAGKSTF
beta TRBV30*01 TRBJ2-7*01 CDR3: CAWSVMVWGSEGEQYF
For B2, the results for the binding result in test [7] and in [8] were “recognises” and “no recognition”, respectively.

B3: TCR(NM-4) (TCR)
alpha TRAV16*01 TRAJ48*01 CDR3: CALRSNFGNEKLTF
beta TRBV5-1*01 TRBJ2-2*01 CDR3: CASSLVVAGVYTGELFF
In the case of B3, the binding result was “no recognition” in [9] and “recognises” in [7].

As a reminder, the Kd is a measure of binding affinity in units of concentration.
